From patent US20200199207A1
Where a chain is given by its changes, count along the chain named. Values belong to the binder of their own block, whether it stands above or below them.

Target: natural peanut extract
Assay: ELISA, antigen-coated plate

B1: h7G6 (antibody, V domains shown)
VH: QVQLVESGGGVVQPGRSLRLSCAASGIAFNDYTMHWVRRSPDKGLEWVAAISYGGTNKYYADSVKGRFTISRDSSKNTLFLQMDSLRVEDTAVYYCARDSGYRSLLHWGQGTLVTVSS
VL: EIVLTQSPLSLPVTPGEPASISCRSSQSLVHRNGYNYLDWYLQKPGQSPQLLIYMASKRASGVPDRFSGSGSGTEFTLKISRVEAEDVGIYYCMQALQTWTFGQGTKVEVN
EC50: 2.8 ng/mL

B2: h2F8 (antibody, V domains shown)
VH: EVQLVESGGGLVKPGGSLRLSCAASGFIFSDYNMNWVRQAPGKGLEWVSSITRSSRTIYYADSVKGRFTISRDNAKNSLHLQMNSLRDADTAVYYCAREDFDVSTGPYYMDVWGNGTTVIVSS
VL: EIVLTQSPGTLSLSPGERATLSCRASQSVSNMFLVWYQQKPGQAPRLLMYGASTRATDIPDRFSGSGSGTDFTLTISRLEPEDFAVYYCQQNGNSPYTFGQGTKLEIK
EC50: 2.8 ng/mL

B4: h12G10 (antibody, human IgG1, V domains shown)
VH: EVQLLESGGRLLRPGGSLSLSCVASGFYFGDFGMSWVRQVPGKGLEWVSGIDWSGRSTGYVDSMKGRLTISRDNDKSSLYLQMNDLRGEDTAVYYCARVGRLCSGDSCDSMGAFDLWGQGTMVTVSS
VL: DIQLTQSPSTLSASIGDSVTITCRASQNIDNWLAWYQQKPGKAPRLLIYKASSLGSGVSSKFRGSGFGTEFTLTITSLQPDDFATYYCQKSNGYSRTFGQGTKVDIK
EC50: 8.1 ng/mL

The remaining lines, values ahead:

EC50: 6.5 ng/mL
B3: h37D5 (antibody, V domains shown)
VH: EEQLVESGGRLLRPGESLSLSCAAVGFNFGDFGMAWVRQPPGKGLEWVAGINWSGHSTGFVDSMKGRLTISRDSAKSSLFLQMNSLRGEDTAVYYCARVGRLCSGDICDSMGAFDLWGQGTMVTVSS
VL: B4 VL with L4M, S18R, N28T, K39R, R45K, K50Q, G55Q, K61R, F67S, D105E

EC50: 7.1 ng/mL
B5: hm37D5 (antibody, V domains shown)
VH: B3 VH
VL: B4 VL with L4M, S18R, N28T, K39R, R45K, K50Q, G55Q, K61R, F67S, D105E

EC50: 8.5 ng/mL
B6: hm12G10 (antibody, V domains shown)
VH: B4 VH
VL: B4 VL

EC50: 4.8 ng/mL
B7: h32B10 (antibody, V domains shown)
VH: QVQLVQSGAEVKKPGASVKVSCRASGYIFRNFDINWVRQATGQGLEWMGWMSPKSGDTGYAQKFQGRVTMTRDTSINTAYMELSSLTSEDSAVYYCARGVDGTNWGQGTRVTVSS
VL: DIVMTQSPDSLGVSLGERATISCKSSQSILDNSNNKNFIAWFQQKPGQPPKLLIYWASARESGVPDRFSGSGSGTEFTLTINSLQAEDVAVYYCYQYYSTPHTFGQGTKLDLR
